The text below walks through data of publication PMC9019252.

For data set [1], the target named is PABPC1 RRM2 (human, UniProt P11940 100-190). The experiment in a line: ITC. (ITC needs no label: the signal is the heat of the interaction.)
In data set [2] the target is PABPC1 RRM3 (human, UniProt P11940 191-289). The experiment in a line: ITC.
The target in data set [3] is PABPC1 RRM2/3 (human, UniProt P11940 100-289). The experiment in a line: ITC.
For data set [4], the target named is PABPC1 RRM1 (human, UniProt P11940 1-99). Nature of the data set: ITC.
In data set [5] the target is PABPC1 RRM4 (human, UniProt P11940 290-371). The experiment in a line: ITC.
For data set [6], the target named is PABPC1 (full length) (human, UniProt P11940 1-636). The experiment in a line: SPR. For orientation: SPR reads the build-up and loss of mass on a sensor chip optically.
Data set [7] has as its target PABPC1 RRM1/2/3/4 (human, UniProt P11940 1-370). Nature of the data set: SPR.

PABPC1 RRM2, sequence (P11940 100-190): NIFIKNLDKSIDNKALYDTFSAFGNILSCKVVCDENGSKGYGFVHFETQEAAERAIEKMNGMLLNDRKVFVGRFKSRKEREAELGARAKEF
PABPC1 RRM2/3, sequence (P11940 100-289): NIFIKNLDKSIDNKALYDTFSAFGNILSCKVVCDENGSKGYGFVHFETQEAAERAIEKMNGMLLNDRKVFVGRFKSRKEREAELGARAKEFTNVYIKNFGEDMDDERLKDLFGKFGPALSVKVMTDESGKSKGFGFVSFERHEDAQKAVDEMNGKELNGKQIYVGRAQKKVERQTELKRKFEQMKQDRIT
PABPC1 RRM1, sequence (P11940 1-99): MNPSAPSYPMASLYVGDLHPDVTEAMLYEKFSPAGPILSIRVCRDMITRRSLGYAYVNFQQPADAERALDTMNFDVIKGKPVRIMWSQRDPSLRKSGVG
PABPC1 RRM1/2/3/4, sequence (P11940 1-370): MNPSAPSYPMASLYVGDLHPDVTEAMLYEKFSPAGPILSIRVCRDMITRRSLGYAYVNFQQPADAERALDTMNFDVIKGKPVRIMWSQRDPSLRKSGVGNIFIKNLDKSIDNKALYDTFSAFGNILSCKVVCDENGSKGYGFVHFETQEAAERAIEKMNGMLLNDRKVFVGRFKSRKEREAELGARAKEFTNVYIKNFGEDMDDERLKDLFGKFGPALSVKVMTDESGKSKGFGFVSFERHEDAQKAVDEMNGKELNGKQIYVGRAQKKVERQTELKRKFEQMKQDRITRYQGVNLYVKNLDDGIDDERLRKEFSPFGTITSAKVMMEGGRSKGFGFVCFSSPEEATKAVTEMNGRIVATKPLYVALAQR
PABPC1 RRM3, sequence (P11940 191-289): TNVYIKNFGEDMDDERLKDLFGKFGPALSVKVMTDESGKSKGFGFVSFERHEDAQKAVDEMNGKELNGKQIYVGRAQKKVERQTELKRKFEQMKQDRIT
PABPC1 RRM4, sequence (P11940 290-371): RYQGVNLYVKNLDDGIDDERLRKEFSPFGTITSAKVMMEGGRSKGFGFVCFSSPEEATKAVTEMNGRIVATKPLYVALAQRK
PABPC1 (full length), sequence (P11940 whole entry): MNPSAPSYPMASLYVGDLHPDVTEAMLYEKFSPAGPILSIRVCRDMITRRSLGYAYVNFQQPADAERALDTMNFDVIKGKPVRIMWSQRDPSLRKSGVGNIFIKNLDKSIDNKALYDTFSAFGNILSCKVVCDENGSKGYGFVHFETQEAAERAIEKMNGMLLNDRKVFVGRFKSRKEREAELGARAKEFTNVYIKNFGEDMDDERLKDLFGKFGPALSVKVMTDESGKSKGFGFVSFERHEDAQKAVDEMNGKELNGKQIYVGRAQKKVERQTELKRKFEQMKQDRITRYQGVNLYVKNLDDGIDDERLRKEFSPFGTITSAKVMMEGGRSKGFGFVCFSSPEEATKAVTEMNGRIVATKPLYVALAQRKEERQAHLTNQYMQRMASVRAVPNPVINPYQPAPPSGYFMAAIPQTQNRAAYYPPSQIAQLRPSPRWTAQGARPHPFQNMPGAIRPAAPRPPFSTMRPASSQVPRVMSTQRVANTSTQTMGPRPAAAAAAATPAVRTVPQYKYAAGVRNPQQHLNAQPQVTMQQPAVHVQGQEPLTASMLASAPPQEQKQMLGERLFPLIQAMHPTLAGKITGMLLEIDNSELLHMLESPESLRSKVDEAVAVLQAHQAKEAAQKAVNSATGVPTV

As usually defined, the Kd is the constant that tells how readily two partners part at equilibrium. High values mean lower affinity, low ones higher affinity. On to AAAAAAA (ssRNA) [A7], for which the dissociation constant Kd was 200 ± 40 µM in data set [1], 4.7 ± 0.3 µM in data set [2] and 0.71 ± 0.1 µM in data set [3]. For the same molecule, the binding result in data set [4] and in data set [5] was “no binding” in each case.

As for AAAAAAAAAAAA (ssRNA) [A12], the values for the dissociation constant (Kd) in data set [1] and in data set [3] were 70 ± 3 µM and 0.0013 ± 0.0006 µM, respectively.

In the case of AAAAAAAAAAAAAAAAAAAAAAAA (ssRNA) [A24], the binding result in data set [6] and in data set [7] was “binds” throughout.
